In patent publication WO2007054120A1 (dated 2007):

How the values were obtained:
[1] = molecular target: T1, recombinant fibronectin domain ED-B (His)6 (human, UniProt P02751 1266-1356); test: SPR (BIAcore), about 100 RU ED-B on chip, Fab in flow
T1 construct: domain: ED-B; Biotinylated ED-B was used only in pannings; also called rekombinantes ED-B; human ED-B

[2] = molecular target: T1, recombinant fibronectin domain ED-B …; test: SPR (BIAcore), ED-B on chip, Fab monomer in flow
[3] = molecular target: T1, recombinant fibronectin domain ED-B …; test: SPR (BIAcore), ED-B on chip, Fab in flow

Row | Kd [1] | Binder | further results
1 | 30 pM | MOR03255 (Fab, V domains shown) VH: QVQLVESGGGLVQPGGSLRLSCAASGFTFSSYGMHWVRQAPGKGLEWVSVISNRSSYIYYADSVKGRFTISRDNSKNTLYLQMNSLRAEDTAVYYCARNKVGFDVWGQGTLVTVSS VL: DIALTQPASVSGSPGQSITISCTGTSSDGGGYNTVSWYQQHPGKAPKLMIYYVHKRPSGVSNRFSGSKSGNTASLTISGLQAEDEADYYCQSWDLSVHQVVFGGGTKLTVLG | –
2 | 40 pM | MOR03258 (Fab, V domains shown) VH: QVQLVESGGGLVQPGGSLRLSCAASGFTFSSYGMHWVRQAPGKGLEWVSVISNQSNYIYYADSVKGRFTISRDNSKNTLYLQMNSLRAEDTAVYYCARNKVGFDVWGQGTLVTVSS VL: DIALTQPASVSGSPGQSITISCTGTSSDGGGYNTVSWYQQHPGKAPKLMIYYVHKRPSGVSNRFSGSKSGNTASLTISGLQAEDEADYYCQSWDLLAPSVVFGGGTKLTVL | –
3 | – | MOR03062 (Fab, V domains shown) VH: QVQLVESGGGLVQPGGSLRLSCAASGFTFSSYGMHWVRQAPGKGLEWVSVISSSGSYIYYADSVKGRFTISRDNSKNTLYLQMNSLRAEDTAVYYCARNKVGFDVWGQGTLVTVSS VL: DIALTQPASVSGSPGQSITISCTGTSSDGGGYNTVSWYQQHPGKAPKLMIYYVHKRPSGVSNRFSGSKSGNTASLTISGLQAEDEADYYCQSWDLSVHQVVFGGGTKLTVLG | Kd [2]: 2400 pM; fold affinity enhancement against MOR02715 [3]: 15 fold
4 | – | MOR03075 (Fab, V domains shown) VH: QVQLQESGPGLVKPGETLSLTCTVSGGSISSYYWSWIRQAPGKGLEWIGIGHWGSTQYNPSLKGRVTISVDTSKNQFSLKLSSVTAEDTAVYYCARFFDVWGQGTLVTVSS VL: DIVLTQPPSVSGAPGQRVTISCSGSSSNIGSNTVRWYQQLPGTAPKLLIYSNNKRPSGVPDRFSGSKSGTSASLAITGLQSEDEADYYCQSWDPRSFTVFGGGTKLTVLG | Kd [3]: 2400 pM
5 | 600 pM | MOR03246 (Fab, V domains shown) VH: QVQLVQSGAEVKKPGASVKVSCKASGYTFTGFYINWVRQAPGQGLEWMGWINPYSGNTRYAQKFQGRVTMTRDTSISTAYMELSSLRSEDTAVYYCARSPVYYKYDYWGQGTLVTVSS VL: DIVLTQPPSVSGAPGQRVTISCSGSSSNIGSNTVRWYQQLPGTAPKLLIYSNNKRPSGVPDRFSGSKSGTSASLAITGLQSEDEADYYCQSWDPRSFTVFGGGTKLTVL | –
6 | ~700 pM | MOR03243 (Fab, V domains shown) VH: QVQLQESGPGLVKPGETLSLTCTVSGGSISSYYWSWIRQAPGKGLEWIGEIHRGGYTQYNPSLKSRVTISVDTSKNQFSLKLSSVTAADTAVYYCARFFDVWGQGTLVTVSS VL: DIVLTQPPSVSGAPGQRVTISCSGSSSNIGSNTVRWYQQLPGTAPKLLIYSNNKRPSGVPDRFSGSKSGTSASLAITGLQSEDEADYYCQAWTRAHRYPVFGGGTKLTVLG | –
7 | ~700 pM | MOR03245 (Fab, V domains shown) VH: QVQLQESGPGLVKPGETLSLTCTVSGGSISSYYWSWIRQAPGKGLEWIGVIHKWGFTNYNPSLKSRVTISVDTSKNQFSLKLSSVTAADTAVYYCARFFDVWGQGTLVTVSS VL: DIVLTQPPSVSGAPGQRVTISCSGSSSNIGSNTVRWYQQLPGTAPKLLIYSNNKRPSGVPDRFSGSKSGTSASLAITGLQSEDEADYYCWTGMSYHFVFGGGTKLTVLG | –
